T1: full-length wild-type EphB2 on the surface of Expi293F cells (mouse, UniProt P54763-3)
T1 sequence: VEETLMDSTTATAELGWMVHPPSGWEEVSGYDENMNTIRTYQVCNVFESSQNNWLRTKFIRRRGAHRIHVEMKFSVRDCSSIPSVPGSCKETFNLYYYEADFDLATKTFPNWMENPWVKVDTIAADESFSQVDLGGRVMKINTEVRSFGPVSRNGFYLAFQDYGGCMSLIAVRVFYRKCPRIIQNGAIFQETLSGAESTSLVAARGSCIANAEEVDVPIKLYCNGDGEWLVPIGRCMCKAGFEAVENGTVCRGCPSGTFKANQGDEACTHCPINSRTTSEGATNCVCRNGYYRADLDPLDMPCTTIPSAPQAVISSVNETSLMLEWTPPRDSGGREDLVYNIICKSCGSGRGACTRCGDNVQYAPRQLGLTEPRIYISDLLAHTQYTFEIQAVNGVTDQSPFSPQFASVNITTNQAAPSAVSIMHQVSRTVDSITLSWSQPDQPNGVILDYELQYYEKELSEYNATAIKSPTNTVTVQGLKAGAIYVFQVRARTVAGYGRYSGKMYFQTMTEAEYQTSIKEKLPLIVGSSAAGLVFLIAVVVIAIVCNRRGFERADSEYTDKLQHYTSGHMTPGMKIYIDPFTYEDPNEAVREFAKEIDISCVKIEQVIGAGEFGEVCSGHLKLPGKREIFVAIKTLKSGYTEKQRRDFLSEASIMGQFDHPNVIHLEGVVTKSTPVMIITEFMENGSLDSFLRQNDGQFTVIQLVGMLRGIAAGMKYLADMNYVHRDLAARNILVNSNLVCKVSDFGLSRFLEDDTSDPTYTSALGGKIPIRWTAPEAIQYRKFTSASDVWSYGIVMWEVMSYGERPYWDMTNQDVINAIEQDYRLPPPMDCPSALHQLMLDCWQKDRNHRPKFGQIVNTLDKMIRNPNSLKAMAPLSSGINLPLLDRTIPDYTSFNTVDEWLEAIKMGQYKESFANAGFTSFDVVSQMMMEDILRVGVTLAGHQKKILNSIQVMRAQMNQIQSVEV


Experiments:
EphA4 receptor on cells = EphA4 receptor on cells (UniProt Q03137); test: flow cytometry on cells
[1] = target: T1, full-length wild-type EphB2 on the …; test: flow cytometry on cells

Sequence of EphA4 receptor on cells (Q03137 20-986): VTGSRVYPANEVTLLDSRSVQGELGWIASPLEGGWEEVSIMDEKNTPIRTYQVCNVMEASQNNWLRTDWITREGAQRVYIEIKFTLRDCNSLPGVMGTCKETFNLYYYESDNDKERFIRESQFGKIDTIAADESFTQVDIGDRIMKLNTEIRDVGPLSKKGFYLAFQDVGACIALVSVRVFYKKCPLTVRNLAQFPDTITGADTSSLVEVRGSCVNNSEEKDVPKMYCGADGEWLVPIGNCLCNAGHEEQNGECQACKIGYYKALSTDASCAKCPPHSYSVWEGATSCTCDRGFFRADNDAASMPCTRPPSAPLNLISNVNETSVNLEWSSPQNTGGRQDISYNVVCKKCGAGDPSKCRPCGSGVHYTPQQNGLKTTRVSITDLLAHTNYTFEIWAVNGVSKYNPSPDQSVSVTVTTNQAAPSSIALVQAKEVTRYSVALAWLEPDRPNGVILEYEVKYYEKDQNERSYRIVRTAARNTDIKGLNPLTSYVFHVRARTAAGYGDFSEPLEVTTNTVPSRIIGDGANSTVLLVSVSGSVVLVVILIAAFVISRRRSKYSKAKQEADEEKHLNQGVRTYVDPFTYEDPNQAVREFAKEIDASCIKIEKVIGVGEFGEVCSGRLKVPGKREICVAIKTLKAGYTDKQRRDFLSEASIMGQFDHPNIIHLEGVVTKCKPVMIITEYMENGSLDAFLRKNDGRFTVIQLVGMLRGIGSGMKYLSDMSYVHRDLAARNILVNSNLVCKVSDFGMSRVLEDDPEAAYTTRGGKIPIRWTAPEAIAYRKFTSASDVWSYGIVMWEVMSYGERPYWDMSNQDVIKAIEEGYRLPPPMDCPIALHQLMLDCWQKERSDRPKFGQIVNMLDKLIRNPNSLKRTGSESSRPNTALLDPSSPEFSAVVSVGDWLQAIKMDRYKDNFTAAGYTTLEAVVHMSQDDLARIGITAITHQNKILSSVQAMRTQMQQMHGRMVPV

| Molecule | Kd (EphA4 receptor on cells) [nM] | Kd [1] [nM] |
| --- | --- | --- |
| pre-clustered ephrin-B2 (receptor binding domain of murine ephrin-B2, residues 30-170, biotinylated) (from UniProt P52800 30-170) (ligand) | 501 |  |
| pre-clustered ephrin-B2 (receptor binding domain of murine ephrin-B2, residues 30-170, biotinylated) (ligand, biotin on the Avi tag (BirA)) SIVLEPIYWNSSNSKFLPGQGLVLYPQIGDKLDIICPKVDSKTVGQYEYYKVYMVDKDQADRCTIKKENTPLLNCARPDQDVKFTIKFQEFSPNLWGLEFQKNKDYYIISTSNGSLEGLDNQEGGVCQTRAMKILMKVGQD |  | 3.53 |
| pre-clustered ephrin-A5 (receptor binding domain of murine ephrin-A5, residues 28-164, biotinylated) (ligand, biotin on the Avi tag (BirA)) VADRYAVYWNSSNPRFQRGDYHIDVCINDYLDVFCPHYEDSVPEDKTERYVLYMVNFDGYSACDHTSKGFKRWECNRPHSPNGPLKFSEKFQLFTPFSLGFEFRPGREYFYISSAIPDNGRRSCLKLKVFVRPTNSC |  | 112 |
| ephrin-B1 (ligand) ATPLAKNLEPVSWSSLNPKFLSGKGLVIYPKIGDKLDIICPRAEAGRPYEYYKLYLVRPEQAAACSTVLDPNVLVTCNKPHQEIRFTIKFQEFSPNYMGLEFKKYHDYYITSTSNGSLEGLENREGGVCRTRTMKIVMKVGQDPNAVTPEQLTTSRPSKESDNTVKTATQAPGRGSQGDSDGKHETVNQEEKSGPGAGGGGSGDSDSFFNSK |  | 6.64 |

Reference: paper PMC12052844 (iScience, 2025)
